Measurements: patent US20210063414A1, “METHODS FOR PREVENTING AND/OR TREATING BONE LOSS CONDITIONS BY MODULATING IRISIN” (Dana-Farber Cancer Institute, Inc., priority 2018, published 2021)

Experiments:
Assay in all cases: Crosslinking/co-immunoprecipitation/mass spectrometry (TMT quantitative proteomics) to identify irisin receptors
Assay type in all cases: binding
[1] = target: T1, MLO-Y4 cell surface proteins (Mus musculus, UniProt Q62028); details: co-precipitated protein Pla2r1 (PLA2R_MOUSE)
T1 construct: endogenous in cells; host or cells: MLO-Y4
T1 sequence (Q62028 27-1487): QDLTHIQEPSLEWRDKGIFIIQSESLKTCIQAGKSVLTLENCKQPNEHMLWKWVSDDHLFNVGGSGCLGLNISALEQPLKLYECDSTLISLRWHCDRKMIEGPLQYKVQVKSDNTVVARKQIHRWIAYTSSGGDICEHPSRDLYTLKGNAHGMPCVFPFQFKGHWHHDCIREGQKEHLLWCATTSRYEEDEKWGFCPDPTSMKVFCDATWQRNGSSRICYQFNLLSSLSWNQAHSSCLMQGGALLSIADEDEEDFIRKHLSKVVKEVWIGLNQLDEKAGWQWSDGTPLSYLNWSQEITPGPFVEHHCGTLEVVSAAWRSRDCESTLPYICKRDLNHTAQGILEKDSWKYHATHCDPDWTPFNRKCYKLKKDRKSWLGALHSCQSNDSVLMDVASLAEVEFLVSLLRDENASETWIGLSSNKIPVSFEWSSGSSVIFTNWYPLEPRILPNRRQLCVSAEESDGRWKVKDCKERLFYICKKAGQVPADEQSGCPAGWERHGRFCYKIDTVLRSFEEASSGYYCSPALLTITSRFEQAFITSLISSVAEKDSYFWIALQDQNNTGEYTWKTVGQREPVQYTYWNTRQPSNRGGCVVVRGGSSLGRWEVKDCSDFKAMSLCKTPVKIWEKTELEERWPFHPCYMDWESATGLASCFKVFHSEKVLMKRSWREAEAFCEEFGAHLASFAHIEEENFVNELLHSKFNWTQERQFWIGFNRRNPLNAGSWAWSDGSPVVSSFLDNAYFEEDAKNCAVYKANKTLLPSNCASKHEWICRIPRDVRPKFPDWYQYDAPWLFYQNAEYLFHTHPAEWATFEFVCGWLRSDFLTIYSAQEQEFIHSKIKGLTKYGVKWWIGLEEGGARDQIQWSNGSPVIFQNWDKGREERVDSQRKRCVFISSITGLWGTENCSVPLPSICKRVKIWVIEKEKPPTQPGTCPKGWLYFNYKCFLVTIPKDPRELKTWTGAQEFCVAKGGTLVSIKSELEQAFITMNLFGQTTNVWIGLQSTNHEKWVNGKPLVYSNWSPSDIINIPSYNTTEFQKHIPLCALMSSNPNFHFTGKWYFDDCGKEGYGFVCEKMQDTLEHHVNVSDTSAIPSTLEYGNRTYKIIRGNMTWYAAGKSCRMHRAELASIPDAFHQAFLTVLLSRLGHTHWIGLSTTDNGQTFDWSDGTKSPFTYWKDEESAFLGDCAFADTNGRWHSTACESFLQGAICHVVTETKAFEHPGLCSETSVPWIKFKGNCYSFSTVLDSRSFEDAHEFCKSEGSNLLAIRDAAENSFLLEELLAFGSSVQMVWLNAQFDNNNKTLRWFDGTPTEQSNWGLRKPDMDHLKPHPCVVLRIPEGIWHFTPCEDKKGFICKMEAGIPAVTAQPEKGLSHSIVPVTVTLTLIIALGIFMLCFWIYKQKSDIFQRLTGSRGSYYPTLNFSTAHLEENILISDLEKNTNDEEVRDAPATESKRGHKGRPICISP
Procedure, shortened: (§1)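 Relative protein abundance came from 6-plex TMT MS3 quantitation on an Orbitrap Fusion Lumos, after in-gel trypsin digestion of Coomassie-stained SDS-PAGE lanes. Input was a Ni-NTA pulldown (250 mM imidazole elution) of lysates from murine MLO-Y4 cells. These cells were treated on ice with His-tagged irisin or adipsin (10 nM, 20 min) in serum-free medium, then crosslinked with 1.5 mM DTSSP for 30 min.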

[2] = target: T2, MLO-Y4 cell surface proteins (Mus musculus, UniProt O35143); details: co-precipitated protein Atpif1 (ATIF1_MOUSE)
T2 construct: endogenous in cells; host or cells: MLO-Y4
T2 sequence (O35143 26-106): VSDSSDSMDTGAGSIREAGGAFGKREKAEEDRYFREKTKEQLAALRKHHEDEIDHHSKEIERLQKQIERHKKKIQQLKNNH
Procedure, shortened: as §1

[3] = target: T3, MLO-Y4 cell surface proteins (Mus musculus, UniProt P16675); details: co-precipitated protein Ctsa (PPGB_MOUSE)
T3 construct: endogenous in cells; host or cells: MLO-Y4
T3 sequence (P16675 24-474): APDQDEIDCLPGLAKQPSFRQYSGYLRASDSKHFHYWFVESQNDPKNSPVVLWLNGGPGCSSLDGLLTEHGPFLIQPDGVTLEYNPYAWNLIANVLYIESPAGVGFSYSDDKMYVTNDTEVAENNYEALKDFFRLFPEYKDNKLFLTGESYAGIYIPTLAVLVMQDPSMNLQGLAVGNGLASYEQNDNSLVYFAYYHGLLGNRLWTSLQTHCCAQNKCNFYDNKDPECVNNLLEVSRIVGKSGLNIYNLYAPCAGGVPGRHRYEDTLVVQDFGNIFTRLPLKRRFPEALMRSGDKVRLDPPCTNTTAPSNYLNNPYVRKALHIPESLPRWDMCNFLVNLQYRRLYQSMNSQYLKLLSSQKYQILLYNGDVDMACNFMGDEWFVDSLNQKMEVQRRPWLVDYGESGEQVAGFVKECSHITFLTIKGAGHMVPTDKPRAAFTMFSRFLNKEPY
Procedure, shortened: as §1

[4] = target: T4, MLO-Y4 cell surface proteins (Mus musculus, UniProt Q66GT5); details: co-precipitated protein Ptpmt1 (PTPM1_MOUSE)
T4 construct: endogenous in cells; host or cells: MLO-Y4
T4 sequence (Q66GT5 32-193): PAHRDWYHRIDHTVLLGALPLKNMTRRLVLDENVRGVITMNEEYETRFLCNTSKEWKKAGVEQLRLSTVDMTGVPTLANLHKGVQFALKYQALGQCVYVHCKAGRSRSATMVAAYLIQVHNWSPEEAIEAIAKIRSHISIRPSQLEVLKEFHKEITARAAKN
Procedure, shortened: as §1

[5] = target: T5, MLO-Y4 cell surface proteins (Mus musculus, UniProt P08249); details: co-precipitated protein Mdh2 (MDHM_MOUSE)
T5 construct: endogenous in cells; host or cells: MLO-Y4
T5 sequence (P08249 25-338): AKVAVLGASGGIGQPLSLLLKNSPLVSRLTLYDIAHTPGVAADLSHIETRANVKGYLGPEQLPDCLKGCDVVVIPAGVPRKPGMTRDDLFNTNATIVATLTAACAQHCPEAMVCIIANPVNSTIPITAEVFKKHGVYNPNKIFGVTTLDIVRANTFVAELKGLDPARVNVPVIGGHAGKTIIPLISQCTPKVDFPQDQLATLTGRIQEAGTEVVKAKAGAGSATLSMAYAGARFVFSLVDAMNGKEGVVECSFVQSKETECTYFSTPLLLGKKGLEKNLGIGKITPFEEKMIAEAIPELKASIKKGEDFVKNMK
Procedure, shortened: as §1

**Q.** What does the source list for adipsin?
**A.** TMT signal-to-noise ratio [1]: 519.664; TMT signal-to-noise ratio [2]: 454.155; TMT signal-to-noise ratio [3]: 357.95; TMT signal-to-noise ratio [4]: 92.3664; TMT signal-to-noise ratio [5]: 2557.03
